Experimental data reported in the supplement of paper PMC10126150.
± gives the standard deviation of the averaged measurements.

Tested on: ATP
Assay: switch fluorescence ratio, 500 uM ATP over buffer (Cy3 cluster intensity, sum of 5 cycles each) (fold (ratio)); higher = stronger signal-on switching upon ATP binding; sequences stand for … in TCGTCGGCAGCGTCAGATGTGTATAAGAGACAGTTTTTTTTTTTTTTTTTTTTTTTTT…TC
Details: aptamer strand: ATP DNA aptamer (quencher-CACCTGGGGGAGTATTGCGGAGGAAGG + anchor), 100 nM annealed; ATP concentration: 500 uM
In short: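 Values give the fluorescence ratio for each switch-domain sequence, averaged from per-cluster ratios of summed target-cycle to summed buffer-cycle Cy3 intensity. The Cy3-labelled switching-strand clusters sat on a modified Illumina MiSeq flow-cell, were annealed to 100 nM quencher-labelled ATP aptamer, and were imaged in selection buffer, then after 15 min with 500 uM ATP at 22 °C. Five cycles ran with NaOH stripping and re-annealing between them, and clusters outside 100-1000 RFU were excluded.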
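Also: ATP exposure 15 min at 22 °C before imaging.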

| Sequence | switch fluorescence ratio |
| --- | --- |
| CGTGAGTTTG | 0.9888 ± 0.0082 |
| CGTGATAAAG | 0.9911 ± 0.0089 |
| CGTGATATTG | 1.01 ± 0.017 |
| CGTGATTAAG | 1.09 ± 0.17 |
| CGTGATTTGA | 0.986 ± 0.014 |
| CGTGCACATT | 0.983 ± 0.012 |
| CGTGCATCGA | 1.0092 ± 0.00045 |
| CGTGCCAGCA | 0.983 ± 0.045 |
| CGTGCCAGCT | 0.9518 ± 0.00082 |
| CGTGCCGGGG | 0.968 ± 0.053 |
| CGTGCGGGGA | 1.02 ± 0.032 |
| CGTGCGGGTT | 0.993 ± 0.047 |
| CGTGCTAGTA | 1.02 ± 0.058 |
| CGTGCTGTT | 1.01 ± 0.027 |
| CGTGGAGGGT | 0.9966 ± 0.0042 |
| CGTGGATGTG | 0.9885 ± 0.0027 |
| CGTGGATGTT | 0.9831 ± 0.0034 |
| CGTGGCAAAG | 1.02 ± 0.015 |
| CGTGGCAGCA | 1.0326 ± 3.9e-05 |
| CGTGGCGCGT | 1.05 ± 0.11 |
| CGTGGCTATG | 0.959 ± 0.019 |
| CGTGGCTGGT | 0.996 ± 0.013 |
| CGTGGGGATA | 1.031 ± 0.009 |

| Sequence | switch fluorescence ratio |
| --- | --- |
| CGTGGGGGAC | 0.997 ± 0.033 |
| CGTGGGGGCA | 0.9538 ± 0.0076 |
| CGTGGGGTGT | 1.01 ± 0.039 |
| CGTGGGTCCA | 1.024 ± 0.01 |
| CGTGGGTGTT | 0.946 ± 0.015 |
| CGTGGTATGG | 0.9976 ± 0.003 |
| CGTGGTTTTT | 1.01 ± 0.023 |
| CGTGTACATC | 1.01 ± 0.011 |
| CGTGTACGGA | 1.022 ± 0.0021 |
| CGTGTATTTG | 0.989 ± 0.011 |
| CGTGTCAGCA | 0.9937 ± 0.0055 |
| CGTGTCGCCT | 1.01 ± 0.015 |
| CGTGTCGCGC | 1.002 ± 0.01 |
| CGTGTGAGAC | 1.02 ± 0.014 |
| CGTGTGAGGG | 1.01 ± 0.015 |
| CGTGTGAGGT | 0.9972 ± 0.008 |
| CGTGTGGCGA | 1.06 ± 0.015 |
| CGTGTGGGGG | 1.02 ± 0.031 |
| CGTGTGGTAG | 0.992 ± 0.044 |
| CGTGTGTGCA | 1.004 ± 0.0024 |
| CGTGTGTTTT | 1 ± 0.0068 |
| CGTGTTCGCT | 0.9921 ± 0.0016 |
| CGTGTTGAGG | 0.991 ± 0.023 |

| Sequence | switch fluorescence ratio |
| --- | --- |
| CGTGTTGGGG | 0.971 ± 0.039 |
| CGTGTTTGTT | 0.988 ± 0.022 |
| CGTTAAACTT | 1.01 ± 0.012 |
| CGTTAAGGGA | 0.978 ± 0.021 |
| CGTTACGCTG | 0.979 ± 0.026 |
| CGTTACTATA | 1.08 ± 0.011 |
| CGTTAGAGAG | 0.99 ± 0.03 |
| CGTTAGGGAG | 0.95456 ± 0.00035 |
| CGTTAGGGGA | 0.999 ± 0.011 |
| CGTTATAAAT | 0.996 ± 0.029 |
| CGTTATATCC | 1.06 ± 0.021 |
| CGTTATGGGA | 0.976 ± 0.022 |
| CGTTCAATGT | 1.026 ± 0.0085 |
| CGTTCAGCGG | 0.996 ± 0.023 |
| CGTTCATATG | 0.963 ± 0.023 |
| CGTTCCGGGG | 1.03 ± 0.036 |
| CGTTCCGGTC | 1.06 ± 0.054 |
| CGTTCGTGTG | 1.017 ± 0.0044 |
| CGTTCTATTG | 1.02 ± 0.086 |
| CGTTGAGGGT | 0.99 ± 0.014 |
| CGTTGATTAG | 0.984 ± 0.014 |
| CGTTGCATGC | 1.39 ± 0.099 |
| CGTTGCCGCT | 0.934 ± 0.054 |

| Sequence | switch fluorescence ratio |
| --- | --- |
| CGTTGCGCGT | 0.993 ± 0.037 |
| CGTTGCGGTA | 1.04 ± 0.026 |
| CGTTGCTTTT | 1.01 ± 0.026 |
| CGTTGGCGAG | 1.01 ± 0.031 |
| CGTTGGGCTG | 1.02 ± 0.038 |
| CGTTGGGGGG | 0.999 ± 0.03 |
| CGTTGGTACG | 1 ± 0.022 |
| CGTTGTAAGG | 1.01 ± 0.027 |
| CGTTGTCGTT | 1.01 ± 0.055 |
| CGTTGTTCGC | 1.02 ± 0.028 |
| CGTTTAAAAG | 0.975 ± 0.022 |
| CGTTTAGACG | 1.09 ± 0.095 |
| CGTTTATCTG | 0.972 ± 0.025 |
| CGTTTCAGGT | 0.994 ± 0.036 |
| CGTTTCATCT | 0.987 ± 0.065 |
| CGTTTCCTTT | 0.993 ± 0.024 |
| CGTTTCTGGG | 1.007 ± 0.0015 |
| CGTTTGAAAA | 1.019 ± 0.0058 |
| CGTTTGAATA | 0.974 ± 0.052 |
| CGTTTGATGC | 1.018 ± 0.0033 |
| CGTTTGCCGT | 0.985 ± 0.024 |
| CGTTTGGAGG | 1.03 ± 0.016 |
| CGTTTGGCCC | 0.988 ± 0.044 |

| Sequence | switch fluorescence ratio |
| --- | --- |
| CGTTTGGGCT | 1.023 ± 0.0037 |
| CGTTTGTCCT | 0.9907 ± 0.0036 |
| CGTTTTATCA | 0.9914 ± 0.0074 |
| CGTTTTGGGT | 1.01 ± 0.033 |
| CGTTTTGGTG | 0.9914 ± 0.0052 |
| CGTTTTTACT | 0.99 ± 0.052 |
| CGTTTTTATG | 1.03 ± 0.04 |
| CGTTTTTCTT | 0.958 ± 0.05 |
| CGTTTTTGAT | 0.981 ± 0.04 |
| CGTTTTTGTA | 0.99 ± 0.015 |
| CTAAAAAATT | 1.01 ± 0.022 |
| CTAAAAACTA | 0.978 ± 0.013 |
| CTAAAAGGCG | 1.06 ± 0.04 |
| CTAAACAGGG | 1.03 ± 0.011 |
| CTAAAGAAAG | 0.989 ± 0.013 |
| CTAAAGAGCA | 1.03 ± 0.073 |
| CTAAATGTTT | 1 ± 0.05 |
| CTAAATTTAG | 0.995 ± 0.023 |
| CTAACAATAA | 1.05 ± 0.081 |
| CTAACTGGCA | 1.048 ± 0.009 |
| CTAACTGTTA | 0.99 ± 0.015 |
| CTAAGAAGGG | 1.05 ± 0.061 |
| CTAAGAGCGC | 1.08 ± 0.064 |

| Sequence | switch fluorescence ratio |
| --- | --- |
| CTAAGAGGGC | 1.0235 ± 0.00018 |
| CTAAGCGGCG | 0.999 ± 0.026 |
| CTAAGGGGGG | 1.04 ± 0.033 |
| CTAAGGGGTT | 0.991 ± 0.036 |
| CTAAGTAGCC | 1.01 ± 0.015 |
| CTAAGTTTGG | 1.018 ± 0.0037 |
| CTAATAGTTA | 0.972 ± 0.0099 |
| CTAATCCACT | 1.028 ± 0.004 |
| CTAATCGGTC | 0.874 ± 0.029 |
| CTAATGAGTT | 0.999 ± 0.03 |
| CTAATGATGG | 1.01 ± 0.056 |
| CTAATGTGTC | 1.02 ± 0.088 |
| CTAATTGAAC | 1.009 ± 0.0032 |
| CTAATTTACG | 1.06 ± 0.028 |
| CTAATTTGGT | 1.01 ± 0.016 |
| CTACGAGGTA | 1.045 ± 0.0027 |
| CTACGCCTGG | 1.66 ± 0.044 |
| CTACGGAGGG | 1.06 ± 0.023 |
| CTACGTAATG | 3.16 ± 0.27 |
| CTACTACTGA | 1.08 ± 0.015 |
| CTAGAAAGTT | 0.9778 ± 0.0029 |
| CTAGATATGT | 0.99 ± 0.011 |
| CTAGATTCGC | 0.984 ± 0.025 |

| Sequence | switch fluorescence ratio |
| --- | --- |
| CTAGATTGGG | 1.015 ± 0.0043 |
| CTAGCATGAT | 1.03 ± 0.061 |
| CTAGCCATTG | 0.995 ± 0.022 |
| CTAGGCTAAT | 1.014 ± 0.01 |
| CTAGGGCGCC | 0.975 ± 0.012 |
| CTAGGGGGCG | 0.992 ± 0.058 |
| CTAGGGGGGG | 0.988 ± 0.021 |
| CTAGGGGTAC | 1.16 ± 0.17 |
| CTAGGTATAG | 1.006 ± 0.0072 |
| CTAGGTCGGA | 1.01 ± 0.021 |
| CTAGGTGACG | 1.004 ± 0.0075 |
| CTAGGTGTGT | 1.02 ± 0.051 |
| CTAGGTTAAA | 0.988 ± 0.023 |
| CTAGGTTGCA | 0.9871 ± 0.0052 |
| CTAGGTTTGG | 1.02 ± 0.033 |
| CTAGTCAATC | 1.7 ± 0.072 |
| CTAGTGAGTG | 0.984 ± 0.036 |
| CTAGTTAAGG | 1.011 ± 0.0048 |
| CTAGTTAGGG | 0.964 ± 0.02 |
